The results in this text go back to publication PMC9860392, “The N-terminal domain of human mitochondrial helicase Twinkle has DNA-binding activity crucial for supporting processive DNA synthesis by polymerase γ” (The Journal of Biological Chemistry, 2022).

Data set [1] addresses T1, FL Twinkle (mitochondrial helicase) (Homo sapiens, UniProt Q96RR1 43-684).
T1 sequence: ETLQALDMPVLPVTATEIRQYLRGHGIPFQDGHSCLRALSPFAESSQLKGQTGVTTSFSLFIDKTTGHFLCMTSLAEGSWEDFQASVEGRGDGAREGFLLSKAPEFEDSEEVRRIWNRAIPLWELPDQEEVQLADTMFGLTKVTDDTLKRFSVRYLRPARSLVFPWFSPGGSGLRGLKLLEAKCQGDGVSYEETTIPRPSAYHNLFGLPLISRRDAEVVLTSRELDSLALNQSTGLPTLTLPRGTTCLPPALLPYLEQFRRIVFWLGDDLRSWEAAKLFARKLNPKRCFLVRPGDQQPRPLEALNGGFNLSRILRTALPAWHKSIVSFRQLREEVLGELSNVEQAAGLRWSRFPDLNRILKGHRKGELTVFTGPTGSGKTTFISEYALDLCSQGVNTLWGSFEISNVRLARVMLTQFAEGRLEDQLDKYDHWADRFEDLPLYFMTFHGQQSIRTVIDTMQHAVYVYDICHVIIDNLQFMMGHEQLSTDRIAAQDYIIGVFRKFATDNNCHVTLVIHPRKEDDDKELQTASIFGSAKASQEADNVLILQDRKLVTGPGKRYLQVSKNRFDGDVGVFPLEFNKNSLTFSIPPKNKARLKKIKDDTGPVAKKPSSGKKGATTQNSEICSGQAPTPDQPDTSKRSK
Description: fluorescence anisotropy; no NaCl added; 50 mM Tris acetate pH 7.5, 10% glycerol, 0.05% Tween-20, 0.5 mM DTT, 0 or 50 mM NaCl; 2.5 nM DNA; no Mg2+ or nucleotide listed; temperature not stated. Conditions: protein: recombinant; tags: SUMO tag removed (ULP1); chain copies: 6; label: 3' fluorescein-T; single strand.

In data set [2] the target is T2, Twinkle CTD (C-terminal domain plus linker) (Homo sapiens, UniProt Q96RR1 360-684).
T2 sequence: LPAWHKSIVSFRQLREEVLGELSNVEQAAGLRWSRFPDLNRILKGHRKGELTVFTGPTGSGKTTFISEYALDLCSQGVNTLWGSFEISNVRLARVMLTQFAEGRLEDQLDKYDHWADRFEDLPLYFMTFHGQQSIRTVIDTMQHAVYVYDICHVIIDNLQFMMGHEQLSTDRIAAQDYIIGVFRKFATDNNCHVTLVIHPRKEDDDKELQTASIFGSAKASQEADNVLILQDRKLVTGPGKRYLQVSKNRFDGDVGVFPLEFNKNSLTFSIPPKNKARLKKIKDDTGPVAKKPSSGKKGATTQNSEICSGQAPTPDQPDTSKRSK
The data set is described as above. Conditions: protein: recombinant; tags: SUMO tag removed (ULP1); chain copies: 6; label: 3' fluorescein-T; single strand.

Data set [3] has as its target T3, Twinkle NTD (Homo sapiens, UniProt Q96RR1 43-372).
T3 sequence: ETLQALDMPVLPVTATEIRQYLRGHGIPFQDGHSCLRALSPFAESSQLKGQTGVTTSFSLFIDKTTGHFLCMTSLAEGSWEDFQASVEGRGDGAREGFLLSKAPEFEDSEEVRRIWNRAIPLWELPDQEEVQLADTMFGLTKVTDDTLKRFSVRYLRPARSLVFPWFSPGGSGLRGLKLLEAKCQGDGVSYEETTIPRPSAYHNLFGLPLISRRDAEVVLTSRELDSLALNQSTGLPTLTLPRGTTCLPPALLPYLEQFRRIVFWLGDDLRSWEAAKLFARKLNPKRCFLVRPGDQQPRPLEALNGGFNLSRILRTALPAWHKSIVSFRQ
Described as above. Particulars: protein: recombinant; tags: SUMO tag removed (ULP1); label: 3' fluorescein-T; single strand.

Data set [4] addresses T1, FL Twinkle (mitochondrial helicase). Description: fluorescence anisotropy; 50 mM NaCl; 50 mM Tris acetate pH 7.5, 10% glycerol, 0.05% Tween-20, 0.5 mM DTT, 0 or 50 mM NaCl; 2.5 nM DNA; no Mg2+ or nucleotide listed; temperature not stated. Particulars: protein: recombinant; tags: SUMO tag removed (ULP1); chain copies: 6; label: 3' fluorescein-T; single strand.
For data set [5] the target is unchanged. Description: fluorescence anisotropy; 50 mM NaCl (error exceeds value); 50 mM Tris acetate pH 7.5, 10% glycerol, 0.05% Tween-20, 0.5 mM DTT, 0 or 50 mM NaCl; 2.5 nM DNA; no Mg2+ or nucleotide listed; temperature not stated. Conditions: protein: recombinant; tags: SUMO tag removed (ULP1); chain copies: 6; label: 3' fluorescein-T; single strand.
For data set [6], the target named is T3, Twinkle NTD. Description: fluorescence anisotropy; no NaCl added; negligible binding; 50 mM Tris acetate pH 7.5, 10% glycerol, 0.05% Tween-20, 0.5 mM DTT, 0 or 50 mM NaCl; 2.5 nM DNA; no Mg2+ or nucleotide listed; temperature not stated. Particulars: protein: recombinant; tags: SUMO tag removed (ULP1); label: 3' fluorescein-T; single strand.
For data set [7], the target named is T3, Twinkle NTD. Put plainly: fluorescence anisotropy; no NaCl added; weak phase of two-site fit; 50 mM Tris acetate pH 7.5, 10% glycerol, 0.05% Tween-20, 0.5 mM DTT, 0 or 50 mM NaCl; 2.5 nM DNA; no Mg2+ or nucleotide listed; temperature not stated. Conditions: protein: recombinant; tags: SUMO tag removed (ULP1); label: 3' fluorescein-T; single strand.
Data set [8] concerns the target T3, Twinkle NTD. Description: fluorescence anisotropy; no NaCl added; tight phase of two-site fit; 50 mM Tris acetate pH 7.5, 10% glycerol, 0.05% Tween-20, 0.5 mM DTT, 0 or 50 mM NaCl; 2.5 nM DNA; no Mg2+ or nucleotide listed; temperature not stated. Particulars: protein: recombinant; tags: SUMO tag removed (ULP1); label: 3' fluorescein-T; single strand.
Data set [9] addresses T2, Twinkle CTD (C-terminal domain plus …). Description: fluorescence anisotropy; 50 mM NaCl; 50 mM Tris acetate pH 7.5, 10% glycerol, 0.05% Tween-20, 0.5 mM DTT, 0 or 50 mM NaCl; 2.5 nM DNA; no Mg2+ or nucleotide listed; temperature not stated. Particulars: protein: recombinant; tags: SUMO tag removed (ULP1); chain copies: 6; label: 3' fluorescein-T; single strand.
Data set [10] deals with the molecule itself. Put plainly: SEC; Superdex 200 Increase 10/300 GL, 4 °C, 0.3 ml/min; 15 μl of 38.5 μM (monomer) FL Twinkle in 50 mM Tris-Cl pH 7.1, 5% glycerol, 300 mM NaCl, 1 mM TCEP; size from a calibration curve of protein standards.
Data set [11] deals with the molecule itself. Put plainly: SEC; Superdex 200 Increase 10/300 GL, 4 °C, 0.3 ml/min; 50 μl of 10 μM (monomer) CTD in 50 mM Tris-Cl pH 7.1, 5% glycerol, 600 mM NaCl; size from a calibration curve of protein standards.

B1: 12 nt ssDNA (ssDNA)
DNA: CTCTTGAACACT
With B1, the Kd came to 5.2 ± 1 nM in data set [1], 21.7 ± 3 nM in data set [2], 141 ± 25 nM with Twinkle NTD [3] and 53 ± 17 nM in data set [4].

B2: 14 nt ssDNA (ssDNA)
DNA: AACTCTTGAACACT
With B2, the Kd in data set [1] stood at 3.3 ± 0.7 nM; in [2] it was 8.8 ± 1.5 nM; in the data set with Twinkle NTD [3], 121 ± 26 nM; in [4] it was 39 ± 16 nM.

B3: 16 nt ssDNA (ssDNA)
DNA: ATAACTCTTGAACACT
Consider B3, for which the Kd is 2.8 ± 0.7 nM in data set [1], 5.2 ± 1.4 nM in [2], 105 ± 24 nM with Twinkle NTD [3] and 22.6 ± 5.1 nM in [4].

B4: 8 nt ssDNA (ssDNA)
DNA: TGAACACT
In the case of B4, the Kd in data set [5] turned out to be 10 ± 12 nM; in [1], 9 ± 4.9 nM; in data set [2], 116 ± 41 nM. Also, in the data set with Twinkle NTD [6], the binding result is given as “no binding”.

B5: 20 nt ssDNA (ssDNA)
DNA: TGCTATAACTCTTGAACACT
For B5, the dissociation constant (Kd) with Twinkle NTD [7] worked out at 1200 ± 640 nM; in data set [1] it was 1.9 ± 0.5 nM; in data set [2], 2.2 ± 0.7 nM; with Twinkle NTD [8] it was 18 ± 7 nM; in data set [4], 8.8 ± 1.3 nM; in [9] it was 50 ± 11 nM.

B6: full-length (FL) human Twinkle (amino acids 43-684) (enzyme, UniProt Q96RR1 43-684, looked up)
chain: ETLQALDMPVLPVTATEIRQYLRGHGIPFQDGHSCLRALSPFAESSQLKGQTGVTTSFSLFIDKTTGHFLCMTSLAEGSWEDFQASVEGRGDGAREGFLLSKAPEFEDSEEVRRIWNRAIPLWELPDQEEVQLADTMFGLTKVTDDTLKRFSVRYLRPARSLVFPWFSPGGSGLRGLKLLEAKCQGDGVSYEETTIPRPSAYHNLFGLPLISRRDAEVVLTSRELDSLALNQSTGLPTLTLPRGTTCLPPALLPYLEQFRRIVFWLGDDLRSWEAAKLFARKLNPKRCFLVRPGDQQPRPLEALNGGFNLSRILRTALPAWHKSIVSFRQLREEVLGELSNVEQAAGLRWSRFPDLNRILKGHRKGELTVFTGPTGSGKTTFISEYALDLCSQGVNTLWGSFEISNVRLARVMLTQFAEGRLEDQLDKYDHWADRFEDLPLYFMTFHGQQSIRTVIDTMQHAVYVYDICHVIIDNLQFMMGHEQLSTDRIAAQDYIIGVFRKFATDNNCHVTLVIHPRKEDDDKELQTASIFGSAKASQEADNVLILQDRKLVTGPGKRYLQVSKNRFDGDVGVFPLEFNKNSLTFSIPPKNKARLKKIKDDTGPVAKKPSSGKKGATTQNSEICSGQAPTPDQPDTSKRSK
notes: human mitochondrial helicase Twinkle, amino acids 43-684; SUMO fusion cut with ULP1 SUMO-protease; the fusion was purified on Ni resin, so it probably carried a His tag that left with SUMO; also called FL Twinkle; TWNK; source: E. coli Rosetta 2 DE3 pLacI, purified (PEI, ammonium sulfate, Ni sepharose, Q sepharose, heparin)
For the molecule B6, in data set [10], the “stoichiometry N” value was roughly 7 subunits.

B7: 30 nt ssDNA (ssDNA)
DNA: TGTGTTAGTTGGGGGGTGACTGTTAAAAGT
In the case of B7, the Kd with Twinkle NTD [7] came to 730 ± 450 nM; in [1], 1.6 ± 0.3 nM; in data set [2] it was 1.7 ± 0.5 nM; in the data set with Twinkle NTD [8] it was 17.5 ± 4 nM; in data set [4], 2.6 ± 0.5 nM; in [9], 4.5 ± 0.9 nM.

B8: Twinkle C-terminal domain plus linker (amino acids 360-684) (domain or fragment, human, UniProt Q96RR1 360-684, looked up)
chain: LPAWHKSIVSFRQLREEVLGELSNVEQAAGLRWSRFPDLNRILKGHRKGELTVFTGPTGSGKTTFISEYALDLCSQGVNTLWGSFEISNVRLARVMLTQFAEGRLEDQLDKYDHWADRFEDLPLYFMTFHGQQSIRTVIDTMQHAVYVYDICHVIIDNLQFMMGHEQLSTDRIAAQDYIIGVFRKFATDNNCHVTLVIHPRKEDDDKELQTASIFGSAKASQEADNVLILQDRKLVTGPGKRYLQVSKNRFDGDVGVFPLEFNKNSLTFSIPPKNKARLKKIKDDTGPVAKKPSSGKKGATTQNSEICSGQAPTPDQPDTSKRSK
notes: human mitochondrial helicase Twinkle, amino acids 360-684 (linker region and C-terminal domain; 36,650 Da); Cloned in the pET28 SUMO expression vector; SUMO cut with ULP1 SUMO-protease; the fusion was purified on Ni resin, so it probably carried a His tag that left with SUMO; also called CTD; Twinkle CTD; source: E. coli Rosetta 2 DE3 pLacI, purified (PEI, ammonium sulfate, Ni-NTA, heparin)
B8: the “stoichiometry N” value in data set [11] was roughly 12 subunit.
